In patent US20040151731A1:

Target: HLA-A, B, C on presenting PBL
Experiment: cell-based or functional assay

reduction in γIFN secretion of Long Term AAA cells with PBL presenting cells and collagen: 74%
Substance: W6/32 (anti-HLA-A, B, C) monoclonal antibody
